Test results taken from the supplement of paper PMC9876800.

Tested on: peptide library, one residue held at a place counted from the S/T acceptor
Assay: relative phosphorylation of the sub-library (ratio to the mean residue at this position); higher = residue favoured
Details: human
In short: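 Human or orthologue kinase constructs, purified and recombinant, were incubated under kinase-specific conditions in 384-well plates with biotinylated degenerate peptide sub-libraries. Each sub-library fixed one residue at one position around a central Ser/Thr. Incubations lasted 90 min with peptides at 50 μM and 50 μM ATP spiked with γ-32P-ATP, after which spots on streptavidin membranes were phosphorimaged and quantified by densitometry. Relative sub-library phosphorylation is a ratio to the mean residue at that position.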

Chain of CDK14, construct: Full length (O94921 whole entry, looked up): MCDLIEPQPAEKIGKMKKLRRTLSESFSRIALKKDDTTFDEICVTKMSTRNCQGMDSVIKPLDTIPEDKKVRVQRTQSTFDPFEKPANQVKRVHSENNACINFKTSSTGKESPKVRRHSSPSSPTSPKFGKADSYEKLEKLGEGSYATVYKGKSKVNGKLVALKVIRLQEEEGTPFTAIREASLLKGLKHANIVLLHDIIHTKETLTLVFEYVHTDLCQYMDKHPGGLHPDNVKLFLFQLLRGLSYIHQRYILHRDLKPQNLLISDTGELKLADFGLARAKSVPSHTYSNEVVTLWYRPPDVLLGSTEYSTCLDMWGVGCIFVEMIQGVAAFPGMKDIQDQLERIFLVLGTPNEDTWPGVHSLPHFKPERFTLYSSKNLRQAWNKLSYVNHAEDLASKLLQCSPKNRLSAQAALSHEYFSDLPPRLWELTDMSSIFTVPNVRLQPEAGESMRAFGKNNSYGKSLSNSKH

CDK14, construct: Full length (from UniProt O94921)
relative phosphorylation (A fixed, at +1): 0.252
relative phosphorylation (A fixed, at +2): 0.535
relative phosphorylation (A fixed, at +3): 0.827
relative phosphorylation (A fixed, at +4): 0.626
relative phosphorylation (A fixed, at -1): 0.896
relative phosphorylation (A fixed, at -2): 0.722
relative phosphorylation (A fixed, at -3): 0.989
relative phosphorylation (A fixed, at -4): 0.958
relative phosphorylation (A fixed, at -5): 0.859
relative phosphorylation (D fixed, at +1): 0.129
relative phosphorylation (D fixed, at +2): 0.365
relative phosphorylation (D fixed, at +3): 0.343
relative phosphorylation (D fixed, at +4): 0.472
relative phosphorylation (D fixed, at -1): 0.376
relative phosphorylation (D fixed, at -2): 0.251
relative phosphorylation (D fixed, at -3): 0.328
relative phosphorylation (D fixed, at -4): 0.625
relative phosphorylation (D fixed, at -5): 0.582
relative phosphorylation (E fixed, at +1): 0.123
relative phosphorylation (E fixed, at +2): 0.292
relative phosphorylation (E fixed, at +3): 0.266
relative phosphorylation (E fixed, at +4): 0.344
relative phosphorylation (E fixed, at -1): 0.366
relative phosphorylation (E fixed, at -2): 0.258
relative phosphorylation (E fixed, at -3): 0.438
relative phosphorylation (E fixed, at -4): 0.592
relative phosphorylation (E fixed, at -5): 0.521
relative phosphorylation (F fixed, at +1): 0.298
relative phosphorylation (F fixed, at +2): 0.793
relative phosphorylation (F fixed, at +3): 1.44
relative phosphorylation (F fixed, at +4): 0.708
relative phosphorylation (F fixed, at -1): 0.704
relative phosphorylation (F fixed, at -2): 0.777
relative phosphorylation (F fixed, at -3): 0.768
relative phosphorylation (F fixed, at -4): 0.725
relative phosphorylation (F fixed, at -5): 0.798
relative phosphorylation (G fixed, at +1): 1.29
relative phosphorylation (G fixed, at +2): 0.619
relative phosphorylation (G fixed, at +3): 0.785
relative phosphorylation (G fixed, at +4): 1.64
relative phosphorylation (G fixed, at -1): 2.02
relative phosphorylation (G fixed, at -2): 0.774
relative phosphorylation (G fixed, at -3): 1.29
relative phosphorylation (G fixed, at -4): 1.08
relative phosphorylation (G fixed, at -5): 1.13
relative phosphorylation (H fixed, at +1): 0.294
relative phosphorylation (H fixed, at +2): 1.19
relative phosphorylation (H fixed, at +3): 0.793
relative phosphorylation (H fixed, at +4): 1.08
relative phosphorylation (H fixed, at -1): 0.835
relative phosphorylation (H fixed, at -2): 0.972
relative phosphorylation (H fixed, at -3): 0.974
relative phosphorylation (H fixed, at -4): 0.978
relative phosphorylation (H fixed, at -5): 1.34
relative phosphorylation (I fixed, at +1): 0.332
relative phosphorylation (I fixed, at +2): 1.25
relative phosphorylation (I fixed, at +3): 1.03
relative phosphorylation (I fixed, at +4): 0.677
relative phosphorylation (I fixed, at -1): 0.324
relative phosphorylation (I fixed, at -2): 0.749
relative phosphorylation (I fixed, at -3): 0.879
relative phosphorylation (I fixed, at -4): 1.39
relative phosphorylation (I fixed, at -5): 1.22
relative phosphorylation (K fixed, at +1): 0.38
relative phosphorylation (K fixed, at +2): 2
relative phosphorylation (K fixed, at +3): 0.937
relative phosphorylation (K fixed, at +4): 1.84
relative phosphorylation (K fixed, at -1): 1.44
relative phosphorylation (K fixed, at -2): 1.14
relative phosphorylation (K fixed, at -3): 1.09
relative phosphorylation (K fixed, at -4): 1.59
relative phosphorylation (K fixed, at -5): 1.78
relative phosphorylation (L fixed, at +1): 0.392
relative phosphorylation (L fixed, at +2): 1.39
relative phosphorylation (L fixed, at +3): 2.38
relative phosphorylation (L fixed, at +4): 0.74
relative phosphorylation (L fixed, at -1): 1.04
relative phosphorylation (L fixed, at -2): 1.29
relative phosphorylation (L fixed, at -3): 0.839
relative phosphorylation (L fixed, at -4): 1.2
relative phosphorylation (L fixed, at -5): 1.23
relative phosphorylation (M fixed, at +1): 0.345
relative phosphorylation (M fixed, at +2): 1.1
relative phosphorylation (M fixed, at +3): 1.97
relative phosphorylation (M fixed, at +4): 0.88
relative phosphorylation (M fixed, at -1): 1.36
relative phosphorylation (M fixed, at -2): 1.11
relative phosphorylation (M fixed, at -3): 0.875
relative phosphorylation (M fixed, at -4): 0.942
relative phosphorylation (M fixed, at -5): 1.06
relative phosphorylation (N fixed, at +1): 0.247
relative phosphorylation (N fixed, at +2): 0.858
relative phosphorylation (N fixed, at +3): 0.6
relative phosphorylation (N fixed, at +4): 1.04
relative phosphorylation (N fixed, at -1): 0.873
relative phosphorylation (N fixed, at -2): 0.701
relative phosphorylation (N fixed, at -3): 0.75
relative phosphorylation (N fixed, at -4): 1.19
relative phosphorylation (N fixed, at -5): 1.15
relative phosphorylation (P fixed, at +1): 11.4
relative phosphorylation (P fixed, at +2): 0.665
relative phosphorylation (P fixed, at +3): 1.28
relative phosphorylation (P fixed, at +4): 1.07
relative phosphorylation (P fixed, at -1): 1.77
relative phosphorylation (P fixed, at -2): 2.49
relative phosphorylation (P fixed, at -3): 1.43
relative phosphorylation (P fixed, at -4): 1.01
relative phosphorylation (P fixed, at -5): 0.957
relative phosphorylation (Q fixed, at +1): 0.286
relative phosphorylation (Q fixed, at +2): 0.854
relative phosphorylation (Q fixed, at +3): 0.772
relative phosphorylation (Q fixed, at +4): 0.935
relative phosphorylation (Q fixed, at -1): 0.863
relative phosphorylation (Q fixed, at -2): 0.794
relative phosphorylation (Q fixed, at -3): 0.756
relative phosphorylation (Q fixed, at -4): 0.843
relative phosphorylation (Q fixed, at -5): 0.822
relative phosphorylation (R fixed, at +1): 0.377
relative phosphorylation (R fixed, at +2): 2.41
relative phosphorylation (R fixed, at +3): 1.02
relative phosphorylation (R fixed, at +4): 2.69
relative phosphorylation (R fixed, at -1): 1.92
relative phosphorylation (R fixed, at -2): 2.6
relative phosphorylation (R fixed, at -3): 3
relative phosphorylation (R fixed, at -4): 1.31
relative phosphorylation (R fixed, at -5): 1.17
relative phosphorylation (V fixed, at +1): 0.305
relative phosphorylation (V fixed, at +2): 1.05
relative phosphorylation (V fixed, at +3): 0.764
relative phosphorylation (V fixed, at +4): 0.582
relative phosphorylation (V fixed, at -1): 0.421
relative phosphorylation (V fixed, at -2): 0.724
relative phosphorylation (V fixed, at -3): 0.753
relative phosphorylation (V fixed, at -4): 0.717
relative phosphorylation (V fixed, at -5): 0.71
relative phosphorylation (W fixed, at +1): 0.301
relative phosphorylation (W fixed, at +2): 0.713
relative phosphorylation (W fixed, at +3): 1.09
relative phosphorylation (W fixed, at +4): 0.962
relative phosphorylation (W fixed, at -1): 0.802
relative phosphorylation (W fixed, at -2): 0.995
relative phosphorylation (W fixed, at -3): 0.955
relative phosphorylation (W fixed, at -4): 1.06
relative phosphorylation (W fixed, at -5): 0.823
relative phosphorylation (Y fixed, at +1): 0.257
relative phosphorylation (Y fixed, at +2): 0.92
relative phosphorylation (Y fixed, at +3): 0.698
relative phosphorylation (Y fixed, at +4): 0.714
relative phosphorylation (Y fixed, at -1): 0.984
relative phosphorylation (Y fixed, at -2): 0.648
relative phosphorylation (Y fixed, at -3): 0.884
relative phosphorylation (Y fixed, at -4): 0.78
relative phosphorylation (Y fixed, at -5): 0.865
relative phosphorylation (pThr fixed, at +1): 0.511
relative phosphorylation (pThr fixed, at +2): 0.842
relative phosphorylation (pThr fixed, at +3): 0.801
relative phosphorylation (pThr fixed, at +4): 0.524
relative phosphorylation (pThr fixed, at -1): 0.457
relative phosphorylation (pThr fixed, at -2): 0.755
relative phosphorylation (pThr fixed, at -3): 0.839
relative phosphorylation (pThr fixed, at -4): 0.879
relative phosphorylation (pThr fixed, at -5): 0.885
relative phosphorylation (pTyr fixed, at +1): 0.609
relative phosphorylation (pTyr fixed, at +2): 0.486
relative phosphorylation (pTyr fixed, at +3): 0.841
relative phosphorylation (pTyr fixed, at +4): 0.387
relative phosphorylation (pTyr fixed, at -1): 0.427
relative phosphorylation (pTyr fixed, at -2): 0.42
relative phosphorylation (pTyr fixed, at -3): 0.605
relative phosphorylation (pTyr fixed, at -4): 0.531
relative phosphorylation (pTyr fixed, at -5): 0.697
